Laboratory results published in article PMC6368601.

Molecular target: taxol-stabilized microtubules polymerized from bovine brain tubulin dimers (bovine) (UniProt Q6B856)
Assay: co-sedimentation; 100 nM ISB (WT, MTBM or Δ20) with various concentrations of taxol-stabilized microtubules; BRB80, 1 mM DTT, 50 mM NaCl, 20 uM paclitaxel; 15 min at room temperature; 50% glycerol cushion, 279,000 x g; blot with anti-Borealin; apparent Kd from a one-site specific binding fit of three experiments

Substance | Kd
ISB^Δ20: INCENP^1-58-Survivin-Borealin lacking the N-terminal 20 amino acids of Borealin (from UniProt Q9NQS7 1-58; O15392 1-142; Q53HL2 21-280) (complex) | 750 nM
INCENP^1-58-Survivin-Borealin complex (ISB^WT), centromere-targeting region of human CPC (from UniProt Q9NQS7 1-58; O15392 1-142; Q53HL2 1-280) | 164 nM
